B1: fusion protein SEQ ID NOs: 86 and 93 (bispecific antibody, human IgG4 S228P, kappa, F234A L235A)
heavy: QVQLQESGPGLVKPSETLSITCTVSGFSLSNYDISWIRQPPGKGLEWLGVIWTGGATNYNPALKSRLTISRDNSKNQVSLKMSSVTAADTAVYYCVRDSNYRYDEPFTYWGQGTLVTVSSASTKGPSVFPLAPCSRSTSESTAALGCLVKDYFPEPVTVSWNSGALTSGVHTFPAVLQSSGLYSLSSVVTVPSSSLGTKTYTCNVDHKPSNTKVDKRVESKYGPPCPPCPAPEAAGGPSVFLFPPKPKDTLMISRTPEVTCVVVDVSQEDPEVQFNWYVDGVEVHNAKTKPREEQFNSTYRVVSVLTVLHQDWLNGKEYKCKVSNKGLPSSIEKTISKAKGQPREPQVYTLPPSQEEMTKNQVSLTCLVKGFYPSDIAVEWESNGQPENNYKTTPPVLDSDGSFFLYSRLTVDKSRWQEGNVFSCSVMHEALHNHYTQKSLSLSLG
light: QDSTSDLIPAPPLSKVPLQQNFQDNQFHGKWYVVGQAGNIRLREDKDPIKMMATIYELKEDKSYDVTMVKFDDKKCMYDIWTFVPGSQPGEFTLGKIKSFPGHTSSLVRVVSTNYNQHAMVFFKFVFQNREEFYITLYGRTKELTSELKENFIRFSKSLGLPENHIVFPVPIDQCIDGGGGGSGGGGSGGGGSEIVLTQSPDTLSVTPKEKVTLTCRASQSIGTNIHWFQQKPGQSPKLLIKYASESISGVPSRFSGSGSGTDFTLTINSVEAEDAATYYCQQSNSWPYTFGQGTKLEIKRTVAAPSVFIFPPSDEQLKSGTASVVCLLNNFYPREAKVQWKVDNALQSGNSQESVTEQDSKDSTYSLSSTLTLSKADYEKHKVYACEVTHQGLSSPVTKSFNRGEC
notes: Antibody-lipocalin mutein fusion, IgG4 S228P backbone; Bivalent to CD137
B2: reference CD137 antibody SEQ ID NOs: 28 and 29 (antibody, human IgG4 S228P, kappa, V domains shown)
VH: QVQLQQWGAGLLKPSETLSLTCAVYGGSFSGYYWSWIRQSPEKGLEWIGEINHGGYVTYNPSLESRVTISVDTSKNQFSLKLSSVTAADTAVYYCARDYGPGNYDWYFDLWGRGTLVTVSS
VL: EIVLTQSPATLSLSPGERATLSCRASQSVSSYLAWYQQKPGQAPRLLIYDASNRATGIPARFSGSGSGTDFTLTISSLEPEDFAVYYCQQRSNWPPALTFGGGTKVEIKR
notes: also called anti-CD137 benchmark antibody
B3: fusion protein SEQ ID NOs: 92 and 87 (bispecific antibody, human IgG4 S228P, kappa, F234A L235A)
heavy: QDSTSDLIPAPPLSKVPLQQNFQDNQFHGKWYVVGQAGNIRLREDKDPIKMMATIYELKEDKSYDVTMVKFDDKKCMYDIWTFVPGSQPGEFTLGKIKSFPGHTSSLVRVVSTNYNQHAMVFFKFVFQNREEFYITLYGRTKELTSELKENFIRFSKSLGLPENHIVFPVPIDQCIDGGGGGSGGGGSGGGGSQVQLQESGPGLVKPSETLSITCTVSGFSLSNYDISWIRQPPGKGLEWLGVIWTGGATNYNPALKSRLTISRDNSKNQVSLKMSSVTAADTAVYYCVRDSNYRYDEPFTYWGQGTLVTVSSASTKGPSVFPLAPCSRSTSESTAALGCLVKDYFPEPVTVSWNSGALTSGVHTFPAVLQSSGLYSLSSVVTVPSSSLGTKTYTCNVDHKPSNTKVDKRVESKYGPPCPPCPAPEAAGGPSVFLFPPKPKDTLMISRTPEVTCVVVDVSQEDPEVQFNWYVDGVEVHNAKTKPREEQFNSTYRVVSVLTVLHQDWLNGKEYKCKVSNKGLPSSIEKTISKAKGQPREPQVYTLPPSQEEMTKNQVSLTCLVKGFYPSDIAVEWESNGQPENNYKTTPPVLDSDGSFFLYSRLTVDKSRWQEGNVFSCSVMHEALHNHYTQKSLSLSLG
light: EIVLTQSPDTLSVTPKEKVTLTCRASQSIGTNIHWFQQKPGQSPKLLIKYASESISGVPSRFSGSGSGTDFTLTINSVEAEDAATYYCQQSNSWPYTFGQGTKLEIKRTVAAPSVFIFPPSDEQLKSGTASVVCLLNNFYPREAKVQWKVDNALQSGNSQESVTEQDSKDSTYSLSSTLTLSKADYEKHKVYACEVTHQGLSSPVTKSFNRGEC
notes: as for B1
B4: fusion protein SEQ ID NOs: 94 and 87 (bispecific antibody, human IgG4 S228P, kappa, F234A L235A)
heavy: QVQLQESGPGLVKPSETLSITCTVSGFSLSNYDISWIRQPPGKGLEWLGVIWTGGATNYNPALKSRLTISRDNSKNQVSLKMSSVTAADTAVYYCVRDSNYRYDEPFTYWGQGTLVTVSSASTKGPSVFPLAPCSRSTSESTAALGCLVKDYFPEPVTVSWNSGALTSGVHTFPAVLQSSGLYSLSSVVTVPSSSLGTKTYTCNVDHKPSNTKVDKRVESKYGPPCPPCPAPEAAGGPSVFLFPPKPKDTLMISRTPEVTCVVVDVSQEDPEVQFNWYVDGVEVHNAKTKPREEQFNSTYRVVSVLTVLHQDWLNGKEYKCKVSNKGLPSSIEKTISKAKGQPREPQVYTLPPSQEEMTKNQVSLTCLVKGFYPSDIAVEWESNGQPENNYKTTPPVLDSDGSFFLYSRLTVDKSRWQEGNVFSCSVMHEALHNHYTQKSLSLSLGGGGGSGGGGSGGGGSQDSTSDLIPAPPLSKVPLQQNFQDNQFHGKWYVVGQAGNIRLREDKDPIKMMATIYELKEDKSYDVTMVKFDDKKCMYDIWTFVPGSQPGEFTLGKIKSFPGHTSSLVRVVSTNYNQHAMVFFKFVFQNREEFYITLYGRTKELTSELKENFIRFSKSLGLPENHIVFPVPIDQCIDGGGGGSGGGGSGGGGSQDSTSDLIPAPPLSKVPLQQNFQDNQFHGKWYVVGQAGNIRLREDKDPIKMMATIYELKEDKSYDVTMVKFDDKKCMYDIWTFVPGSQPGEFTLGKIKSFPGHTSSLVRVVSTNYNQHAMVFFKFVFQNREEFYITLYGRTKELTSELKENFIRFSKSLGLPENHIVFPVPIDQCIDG
light: B3 light
notes: Antibody-lipocalin mutein fusion, IgG4 S228P backbone
B5: PD-L1 antibody SEQ ID NOs: 86 and 87 (building block of the fusion proteins) (antibody, human IgG4 S228P, kappa, F234A L235A, V domains shown)
VH: QVQLQESGPGLVKPSETLSITCTVSGFSLSNYDISWIRQPPGKGLEWLGVIWTGGATNYNPALKSRLTISRDNSKNQVSLKMSSVTAADTAVYYCVRDSNYRYDEPFTYWGQGTLVTVSS
VL: EIVLTQSPDTLSVTPKEKVTLTCRASQSIGTNIHWFQQKPGQSPKLLIKYASESISGVPSRFSGSGSGTDFTLTINSVEAEDAATYYCQQSNSWPYTFGQGTKLEIKR

Biological target: T1, human CD137 expressed on cells (human, UniProt Q07011 24-255)
T1 sequence (Q07011 24-255): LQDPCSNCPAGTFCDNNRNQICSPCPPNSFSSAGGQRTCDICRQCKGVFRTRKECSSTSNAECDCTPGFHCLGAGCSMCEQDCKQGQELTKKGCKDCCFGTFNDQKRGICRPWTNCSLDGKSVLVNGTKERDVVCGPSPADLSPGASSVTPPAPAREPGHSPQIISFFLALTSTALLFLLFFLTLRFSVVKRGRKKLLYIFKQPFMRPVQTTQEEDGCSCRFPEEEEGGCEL
Assay: cell-based or functional assay

| Binder | EC50 [nM] With RKO cells (CD137 Bioassay, NFκB-luc2/CD137 Jurkat luminescence) |
| --- | --- |
| B1 | 0.264 nM |
| B2 | 0.814 nM |
| B3 | 0.181 nM |

Biological target: T1, human CD137 expressed on cells
Assay: flow cytometry, Flp-In-CHO::huCD137 cells
Description: (§1) The geometric means of the fluorescence intensity were used to calculate EC₅₀ values using nonlinear regression (shared bottom, SLOPE=1).
(§2) 5×10⁴ cells per well were incubated for 1 h in ice-cold PBS containing 5% fetal calf serum (PBS-FCS). A dilution series of the fusion proteins and control antibodies were added to the cells and incubated for 1 h on ice. Cells were washed twice with PBS and then incubated with a goat anti-hIgG Alexa647-labeled antibody for 30 min on ice. Cells were subsequently washed and analyzed using iQue Flow cytometer (Intellicyte Screener). Mean geometric fluorescent signals were plotted and fitted with Graphpad software using nonlinear regression (shared bottom, SLOPE=1).

| Binder | EC50 |
| --- | --- |
| B1 | 12.7 nM |
| B2 | 1.31 nM |
| B3 | 11.9 nM |
| B4 | 4.15 nM |

Biological target: T2, human PD-L1 expressed on cells (human, UniProt Q9NZQ7 19-290)
T2 construct: whole, on cells; also called Flp-In-CHO::huPDL-1; RKO cells
T2 sequence (Q9NZQ7 19-290): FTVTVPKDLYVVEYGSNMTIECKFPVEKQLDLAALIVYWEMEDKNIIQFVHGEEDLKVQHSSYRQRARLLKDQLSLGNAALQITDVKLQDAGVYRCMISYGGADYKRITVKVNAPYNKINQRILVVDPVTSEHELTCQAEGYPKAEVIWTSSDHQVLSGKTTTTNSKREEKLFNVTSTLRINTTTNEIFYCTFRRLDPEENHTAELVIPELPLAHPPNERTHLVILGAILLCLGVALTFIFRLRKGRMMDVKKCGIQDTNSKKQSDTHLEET
Assay: flow cytometry, Flp-In-CHO::huPDL-1 cells
Description: as §1, §2

| Binder | EC50 |
| --- | --- |
| B1 | 4.63 nM |
| B5 | 2.96 nM |
| B3 | 2.95 nM |
| B4 | 6.99 nM |

Biological target: T3, cynomolgus CD137 expressed on cells (cynomolgus, UniProt A9YYE7 24-254)
T3 construct: also called Flp-In-CHO::cynoCD137
T3 sequence (A9YYE7 entry or part of it limits assumed): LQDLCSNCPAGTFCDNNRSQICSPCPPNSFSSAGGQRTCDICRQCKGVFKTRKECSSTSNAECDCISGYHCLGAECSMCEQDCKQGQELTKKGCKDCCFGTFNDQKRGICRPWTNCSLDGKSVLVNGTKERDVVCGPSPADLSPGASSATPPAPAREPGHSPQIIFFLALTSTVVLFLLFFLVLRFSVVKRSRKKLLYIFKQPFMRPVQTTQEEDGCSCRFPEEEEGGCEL
Assay: flow cytometry, Flp-In-CHO::cynoCD137 cells
Description: as §1, §2

| Binder | EC50 |
| --- | --- |
| B4 | 6.92 nM |

Biological target: T4, cynomolgus PD-L1 expressed on cells (cynomolgus)
T4 construct: whole, on cells; also called Flp-In-CHO::cynoPDL-1
Assay: flow cytometry, Flp-In-CHO::cynoPDL-1 cells
Description: as §1, §2

| Binder | EC50 |
| --- | --- |
| B1 | 2.03 nM |
| B5 | 3.55 nM |
| B3 | 2.03 nM |
| B4 | 5.89 nM |

Biological target: T2, human PD-L1 expressed on cells
Assay: flow cytometry, RKO tumor cells (PD-L1-positive)
Description: as §2
For flow cytometric analysis, RKO cells were incubated with fusion proteins and detected using a fluorescently labeled anti-human IgG antibody as described in Example 6.

| Binder | EC50 |
| --- | --- |
| B1 | 1.38 nM |
| B5 | 0.32 nM |
| B3 | 1 nM |
| B4 | 0.69 nM |

Biological target: cyCD137-Fc (cynomolgus CD137 C-terminally fused to Fc) (cynomolgus)
Assay: ELISA, cyCD137-Fc coated, detection anti-NGAL-HRP
Description: (§3) Recombinant huPD-L1-His or cyPD-L1-His (human or cynomolgus PD-L1 with a C-terminal polyhistidine tag, R&D Systems or Sino Biologics) at the concentration of 1 μg/mL in PBS was coated overnight on microtiter plates at 4° C. After washing with PBS-0.05% T (PBS supplemented with 0.05% (v/v) Tween 20), the plates were blocked with 2% BSA (w/v) in PBS-0.1% T (PBS supplemented with 0.1% (v/v) Tween 20) for 1 h at room temperature. […] Bound molecules under study were detected by incubation with 1:5000 diluted anti-human IgG Fc-HRP (Jackson Laboratory) in PBS-0.1% T-2% BSA. After an additional wash step, fluorogenic HRP substrate (QuantaBlu, Thermo) was added to each well and the fluorescence intensity was detected using a fluorescence microplate reader.
(§4) The same ELISA setup was also employed to determine the binding potency of fusion proteins to CD137, where huCD137-His (human CD137 with C-terminal polyhistidine tag, R&D Systems) or cyCD137-Fc (cynomolgus CD137 C-terminally fused to Fc) was instead coated on a microtiter plate. The testing agents were similarly titrated and bound agents were detected via anti-NGAL-HRP.

| Binder | EC50 |
| --- | --- |
| B1 | 8.1 nM |
| B3 | 9.8 nM |
| B4 | 0.19 nM |

Biological target: T5, huCD137-His (human CD137 with a C-terminal polyhistidine tag) (human, UniProt Q07011 24-186)
T5 construct: Bought; also called huCD137-His-Bio
T5 sequence (Q07011 24-186 limits assumed): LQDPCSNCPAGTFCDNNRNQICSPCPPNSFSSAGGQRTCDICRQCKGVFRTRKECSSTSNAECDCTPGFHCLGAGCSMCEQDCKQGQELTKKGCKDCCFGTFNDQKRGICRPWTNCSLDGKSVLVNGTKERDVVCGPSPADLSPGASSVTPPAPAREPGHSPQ
Assay: ELISA, huCD137-His coated, detection anti-NGAL-HRP
Description: as §3, §4

| Binder | EC50 |
| --- | --- |
| B1 | 0.35 nM |
| B3 | 0.41 nM |
| B4 | 0.16 nM |

Biological target: T6, cyPD-L1-His (cynomolgus PD-L1 with a C-terminal polyhistidine tag) (cynomolgus)
T6 construct: Bought
Assay: ELISA, cyPD-L1-His coated, detection anti-human IgG Fc-HRP
Description: as §3

| Binder | EC50 |
| --- | --- |
| B1 | 0.17 nM |
| B5 | 0.1 nM |
| B3 | 0.15 nM |
| B4 | 0.15 nM |

Biological target: T7, huPD-L1-His (human PD-L1 with a C-terminal polyhistidine tag) (human, UniProt Q9NZQ7 19-239)
T7 construct: Bought; also called biotinylated huPD-L1-His
T7 sequence (Q9NZQ7 19-239 limits assumed): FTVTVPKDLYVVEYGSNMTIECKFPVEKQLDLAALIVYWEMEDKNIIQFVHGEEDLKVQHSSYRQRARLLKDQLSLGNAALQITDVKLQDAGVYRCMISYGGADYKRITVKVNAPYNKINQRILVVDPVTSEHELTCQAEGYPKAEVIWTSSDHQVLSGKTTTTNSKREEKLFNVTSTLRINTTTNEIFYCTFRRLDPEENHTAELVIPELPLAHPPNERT
Assay: ELISA, huPD-L1-His coated, detection anti-human IgG Fc-HRP
Description: as §3

| Binder | EC50 |
| --- | --- |
| B1 | 0.19 nM |
| B5 | 0.12 nM |
| B3 | 0.16 nM |
| B4 | 0.18 nM |

Biological target: T8, huPD-L1-Fc (recombinant human PD-L1 Fc fusion) (human, UniProt Q9NZQ7 19-239)
T8 construct: Bought; also called tracer huPD-L1-Fc
T8 sequence (Q9NZQ7 19-239 limits assumed): as above
Assay: competitive ELISA, huPD-1-His coated, 15 nM huPD-L1-Fc tracer, binder titrated
Description: Recombinant huPD-1-His (Acrobiosystems) in PBS (1 μg/mL) was coated overnight on microtiter plates at 4° C. The plates were washed five times after each incubation step with 100 μL PBS-0.05% T (PBS supplemented with 0.05% (v/v) Tween 20). The plates were blocked with 2% BSA (w/v) in PBS-0.1% T (PBS supplemented with 0.1% (v/v) Tween 20) for 1 h at room temperature and subsequently washed again. […] The mixtures of fusion proteins and the tracer were added to the plates and incubated for 20 min at room temperature following by five washing steps with 100 μL PBS-0.05% T. Subsequently, a 1:5000 dilution of goat-anti human IgG-Fc HRP (Jackson) was added to the wells and incubated for 1 h. After an additional wash step, fluorogenic HRP substrate (QuantaBlu, Thermo) was added to each well, and the fluorescence intensity was detected using a fluorescence microplate reader.

| Binder | IC50 |
| --- | --- |
| B1 | 3.2 nM |
| B5 | 3.5 nM |
| B3 | 3.4 nM |
| B4 | 2.4 nM |

Biological target: T5, huCD137-His (human CD137 with a …)
Assay: SPR (Biacore), binder captured by anti-human IgG Fc, huCD137-His in solution, 25 C, 1:1 model
Description: (§5) The binding kinetics and affinity of exemplary fusion proteins to huPD-L1-His or huCD137-His (human PD-L1 or human CD137 with a C-terminal polyhistidine tag, R&D Systems) were determined by surface plasmon resonance (SPR) using a Biacore 8K or a Biacore T200 (GE Healthcare).
(§6) The anti-human IgG Fc antibody (GE Healthcare) was immobilized on a CM5 sensor chip using standard amine chemistry: the carboxyl groups on the chip were activated using 1-ethyl-3-(3-dimethylaminopropyl)-carbodiimide (EDC) and N-hydroxysuccinimide (NHS). Subsequently, anti-human IgG Fc antibody solution (GE Healthcare) at a concentration of 25 μg/mL in 10 mM sodium acetate (pH 5.0) was applied at a flow rate of 5 μL/min until an immobilization level of 6000-10000 resonance units (RU) was achieved. Residual non-reacted NHS-esters were blocked by passing a solution of 1M ethanolamine across the surface. The reference channel was treated in an analogous manner. […] After each capture step, the needle was washed.
(§7) Double referencing was used and the 1:1 binding model was used to fit the raw data.

| Binder | Kd | koff | kon |
| --- | --- | --- | --- |
| B1 | 3.55 nM | 0.00013 s⁻¹ | 36800 M⁻¹ s⁻¹ |
| B2 | 6.24 nM |  |  |
| B3 | 5.97 nM | 0.000208 s⁻¹ | 34800 M⁻¹ s⁻¹ |
| B4 | 5.5 nM | 0.000224 s⁻¹ | 40700 M⁻¹ s⁻¹ |

Biological target: T7, huPD-L1-His (human PD-L1 with a …)
Assay: SPR (Biacore), binder captured by anti-human IgG Fc, huPD-L1-His in solution, 25 C, 1:1 model
Description: as §5, §6, §7

| Binder | Kd | koff | kon |
| --- | --- | --- | --- |
| B1 | 1.38 nM | 0.000754 s⁻¹ | 546000 M⁻¹ s⁻¹ |
| B5 | 0.593 nM | 0.000649 s⁻¹ | 1.09e+06 M⁻¹ s⁻¹ |
| B3 | 1.02 nM | 0.000803 s⁻¹ | 787000 M⁻¹ s⁻¹ |
| B4 | 0.608 nM | 0.000916 s⁻¹ | 1.51e+06 M⁻¹ s⁻¹ |

Biological target: T5, huCD137-His (human CD137 with a …)
Assay: dual-binding ELISA, huCD137-His coated, binder titrated, detection with biotinylated huPD-L1-His

| Binder | EC50 |
| --- | --- |
| B1 | 6.7 nM |
| B3 | 7.2 nM |
| B4 | 2.6 nM |

Biological target: T7, huPD-L1-His (human PD-L1 with a …)
Assay: dual-binding ELISA, huPD-L1-His coated, binder titrated, detection with biotinylated huCD137-His
Description: Recombinant huPD-L1-His (R&D Systems) in PBS (1 μg/mL) was coated overnight on microtiter plates at 4° C. The plates were washed five times after each incubation step with 100 μL PBS-0.05% T. The plates were blocked with 2% BSA (w/v) in PBS-0.1% T for 1 h at room temperature and subsequently washed again. Different concentrations of tested fusion proteins were added to the wells and incubated for 1 h at room temperature, followed by a wash step. […] After washing, a 1:5000 dilution of ExtrAvidin-HRP (Sigma-Aldrich) in PBS-0.1% T-2% BSA was added to the wells and incubated for 1 h. After an additional wash step, fluorogenic HRP substrate (QuantaBlu, Thermo) was added to each well, and the fluorescence intensity was detected using a fluorescence microplate reader.

| Binder | EC50 |
| --- | --- |
| B1 | 0.74 nM |
| B3 | 1.2 nM |
| B4 | 0.48 nM |

— US20210363257A1 (Pieris, published 2021)
